In paper PMC10352137, “Readout of histone methylation by Trim24 locally restricts chromatin opening by p53” (Nature Structural & Molecular Biology, 2023):

Target: T1, Flag-tagged TRIM24 N-terminal domain (amino acids 1-473) (mouse, UniProt Q64127 1-473)
T1 construct: TRIM24, mouse, N-terminal domain, amino acids 1-473; the recombinant constructs are numbered to residue 1051; also called amino-terminal region of the Trim24 protein; not shown: Flag, N-terminal, kept
T1 sequence (looked up): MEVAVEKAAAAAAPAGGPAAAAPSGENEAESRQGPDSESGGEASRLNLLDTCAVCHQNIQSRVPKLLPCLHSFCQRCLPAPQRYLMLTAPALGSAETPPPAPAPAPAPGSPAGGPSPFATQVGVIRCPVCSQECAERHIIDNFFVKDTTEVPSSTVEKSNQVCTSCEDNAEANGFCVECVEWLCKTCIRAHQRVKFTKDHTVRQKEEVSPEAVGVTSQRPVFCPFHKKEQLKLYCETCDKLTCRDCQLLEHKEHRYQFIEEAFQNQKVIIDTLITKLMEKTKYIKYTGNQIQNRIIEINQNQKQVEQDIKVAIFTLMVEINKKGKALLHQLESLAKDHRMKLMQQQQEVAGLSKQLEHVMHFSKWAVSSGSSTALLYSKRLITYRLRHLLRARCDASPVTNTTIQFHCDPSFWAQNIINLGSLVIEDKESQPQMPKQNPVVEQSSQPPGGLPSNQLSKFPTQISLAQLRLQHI
Assay: pull-down; Flag-tagged TRIM24 domains (0.25 nmol) mixed with Strep-tagged p53 in equimolar ratios, anti-Flag or Strep-Tactin beads, 2 h at 4 °C, 50 mM HEPES pH 8.0, 150 mM NaCl; stained gel
Conditions: both partners purified

binding result: binds
B1: Strep-tagged mouse full-length p53 (natural protein, UniProt P02340 1-390, looked up)
chain: MTAMEESQSDISLELPLSQETFSGLWKLLPPEDILPSPHCMDDLLLPQDVEEFFEGPSEALRVSGAPAAQDPVTETPGPVAPAPATPWPLSSFVPSQKTYQGNYGFHLGFLQSGTAKSVMCTYSPPLNKLFCQLAKTCPVQLWVSATPPAGSRVRAMAIYKKSQHMTEVVRRCPHHERCSDGDGLAPPQHLIRVEGNLYPEYLEDRQTFRHSVVVPYEPPEAGSEYTTIHYKYMCNSSCMGGMNRRPILTIITLEDSSGNLLGRDSFEVRVCACPGRDRRTEEENFRKKEVLCPELPPGSAKRALPTCTSASPPQKKKPLDGEYFTLKIRGRKRFEMFRELNEALELKDAHATEESGDSRAHSSYLKTKKGQSTSRHKKTMVKKVGPDSD
notes: p53, mouse, full length; also called purified p53; Strep-tagged p53 full-length protein; source: Sf9 (Bac-to-Bac), purified (Strep-Tactin, heparin ion exchange, Superose 6 SEC); not shown: Strep-tag, N-terminal, kept
